Target: MET receptor tyrosine kinase (mouse (endogenous in neocortical …, UniProt P16056 25-1379))
Test: co-IP

B1: SYNGAP1 (natural protein, UniProt F6SEU4 1-1340, looked up)
chain: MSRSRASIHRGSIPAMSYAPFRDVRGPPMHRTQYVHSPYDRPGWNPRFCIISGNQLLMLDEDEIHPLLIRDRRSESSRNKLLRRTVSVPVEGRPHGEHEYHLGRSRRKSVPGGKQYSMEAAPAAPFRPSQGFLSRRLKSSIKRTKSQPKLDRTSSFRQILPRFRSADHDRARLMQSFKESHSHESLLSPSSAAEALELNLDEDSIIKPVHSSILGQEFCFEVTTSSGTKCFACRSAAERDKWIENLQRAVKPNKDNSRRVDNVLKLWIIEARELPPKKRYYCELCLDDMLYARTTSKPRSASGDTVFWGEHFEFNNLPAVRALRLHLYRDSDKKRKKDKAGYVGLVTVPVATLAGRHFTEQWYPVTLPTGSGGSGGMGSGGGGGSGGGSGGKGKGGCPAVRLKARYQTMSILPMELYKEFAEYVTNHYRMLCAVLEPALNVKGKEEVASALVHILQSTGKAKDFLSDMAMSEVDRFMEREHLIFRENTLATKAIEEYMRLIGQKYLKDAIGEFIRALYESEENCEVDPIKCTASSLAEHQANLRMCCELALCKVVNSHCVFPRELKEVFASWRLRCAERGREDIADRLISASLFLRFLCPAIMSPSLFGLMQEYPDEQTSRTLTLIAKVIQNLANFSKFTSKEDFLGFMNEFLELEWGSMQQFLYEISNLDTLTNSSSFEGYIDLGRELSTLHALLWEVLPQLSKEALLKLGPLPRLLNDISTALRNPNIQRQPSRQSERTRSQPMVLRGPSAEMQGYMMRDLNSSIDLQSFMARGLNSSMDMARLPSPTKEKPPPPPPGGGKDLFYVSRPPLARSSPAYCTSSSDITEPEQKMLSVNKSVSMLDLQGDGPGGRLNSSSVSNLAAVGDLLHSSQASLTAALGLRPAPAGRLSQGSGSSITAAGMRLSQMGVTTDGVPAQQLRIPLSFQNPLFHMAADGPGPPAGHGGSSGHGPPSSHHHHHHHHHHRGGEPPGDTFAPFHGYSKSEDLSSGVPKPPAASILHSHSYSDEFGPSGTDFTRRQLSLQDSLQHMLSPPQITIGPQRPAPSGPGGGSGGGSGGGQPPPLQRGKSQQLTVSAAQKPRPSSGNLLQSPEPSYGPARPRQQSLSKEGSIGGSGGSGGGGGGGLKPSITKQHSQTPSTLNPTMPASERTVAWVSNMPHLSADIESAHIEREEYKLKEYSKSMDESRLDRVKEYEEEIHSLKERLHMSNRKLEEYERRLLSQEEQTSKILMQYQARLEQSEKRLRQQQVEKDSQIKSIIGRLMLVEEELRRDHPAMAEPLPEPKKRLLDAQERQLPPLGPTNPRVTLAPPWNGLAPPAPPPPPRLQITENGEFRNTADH
- mean fold change (HGF/PBS) of binding: 0.63 fold

B2: GRM5 (receptor, UniProt Q3UVX5 19-1203, looked up)
chain: SAQSSERRVVAHMPGDIIIGALFSVHHQPTVDKVHERKCGAVREQYGIQRVEAMLHTLERINSDPTLLPNITLGCEIRDSCWHSAVALEQSIEFIRDSLISSEEEEGLVRCVDGSSSFRSKKPIVGVIGPGSSSVAIQVQNLLQLFNIPQIAYSATSMDLSDKTLFKYFMRVVPSDAQQARAMVDIVKRYNWTYVSAVHTEGNYGESGMEAFKDMSAKEGICIAHSYKIYSNAGEQSFDKLLKKLRSHLPKARVVACFCEGMTVRGLLMAMRRLGLAGEFLLLGSDGWADRYDVTDGYQREAVGGITIKLQSPDVKWFDDYYLKLRPETNLRNPWFQEFWQHRFQCRLEGFAQENSKYNKTCNSSLTLRTHHVQDSKMGFVINAIYSMAYGLHNMQMSLCPGYAGLCDAMKPIDGRKLLDSLMKTNFTGVSGDMILFDENGDSPGRYEIMNFKEMGKDYFDYINVGSWDNGELKMDDDEVWSKKNNIIRSVCSEPCEKGQIKVIRKGEVSCCWTCTPCKENEYVFDEYTCKACQLGSWPTDDLTGCDLIPVQYLRWGDPEPIAAVVFACLGLLATLFVTVIFIIYRDTPVVKSSSRELCYIILAGICLGYLCTFCLIAKPKQIYCYLQRIGIGLSPAMSYSALVTKTNRIARILAGSKKKICTKKPRFMSACAQLVIAFILICIQLGIIVALFIMEPPDIMHDYPSIREVYLICNTTNLGVVTPLGYNGLLILSCTFYAFKTRNVPANFNEAKYIAFTMYTTCIIWLAFVPIYFGSNYKIITMCFSVSLSATVALGCMFVPKVYIILAKPERNVRSAFTTSTVVRMHVGDGKSSSAASRSSSLVNLWKRRGSSGETLRYKDRRLAQHKSEIECFTPKGSMGNGGRATMSSSNGKSVTWAQNEKSTRGQHLWQRLSVHINKKENPNQTAVIKPFPKSTESRGQGAGAGGGSGPGAAGAGSAGCTATGGPEPPDAGPKALYDVAEAEERFPAAARPRSPSPISTLSHLAGSAGRTDDDAPSLHSETAARSSSSQGSLMEQISSVVTRFTANITELNSMMLSTAAAPGPPGTPICSSYLIPKEIQLPTTMTTFAEIQPLPAIEVTGGAQPATGPSPAQETPAGAEAAPGKPDLEELVALTPPSPFRDSVDSGSTTPNSPVSESALCIPSSPKYDTLIIRDYTQSSSSL
- mean fold change (HGF/PBS) of binding: 1.35 fold

B3: NTRK3 (receptor)
chain: not shown
- mean fold change (HGF/PBS) of binding: 0.95 fold
